Data on seven molecules can be found in patent publication US20240117054A1 (DRAGONFLY THERAPEUTICS, published 2024).

In assay [1] the target is T1, human FLT3 (hFLT3) expressed on cells (human, UniProt P36888 27-993).
T1 construct: whole, on cells; One molecule for all cell lines that carry human FLT3; also called RMA-hFLT3; FLT3 on REH cells
T1 sequence (looked up): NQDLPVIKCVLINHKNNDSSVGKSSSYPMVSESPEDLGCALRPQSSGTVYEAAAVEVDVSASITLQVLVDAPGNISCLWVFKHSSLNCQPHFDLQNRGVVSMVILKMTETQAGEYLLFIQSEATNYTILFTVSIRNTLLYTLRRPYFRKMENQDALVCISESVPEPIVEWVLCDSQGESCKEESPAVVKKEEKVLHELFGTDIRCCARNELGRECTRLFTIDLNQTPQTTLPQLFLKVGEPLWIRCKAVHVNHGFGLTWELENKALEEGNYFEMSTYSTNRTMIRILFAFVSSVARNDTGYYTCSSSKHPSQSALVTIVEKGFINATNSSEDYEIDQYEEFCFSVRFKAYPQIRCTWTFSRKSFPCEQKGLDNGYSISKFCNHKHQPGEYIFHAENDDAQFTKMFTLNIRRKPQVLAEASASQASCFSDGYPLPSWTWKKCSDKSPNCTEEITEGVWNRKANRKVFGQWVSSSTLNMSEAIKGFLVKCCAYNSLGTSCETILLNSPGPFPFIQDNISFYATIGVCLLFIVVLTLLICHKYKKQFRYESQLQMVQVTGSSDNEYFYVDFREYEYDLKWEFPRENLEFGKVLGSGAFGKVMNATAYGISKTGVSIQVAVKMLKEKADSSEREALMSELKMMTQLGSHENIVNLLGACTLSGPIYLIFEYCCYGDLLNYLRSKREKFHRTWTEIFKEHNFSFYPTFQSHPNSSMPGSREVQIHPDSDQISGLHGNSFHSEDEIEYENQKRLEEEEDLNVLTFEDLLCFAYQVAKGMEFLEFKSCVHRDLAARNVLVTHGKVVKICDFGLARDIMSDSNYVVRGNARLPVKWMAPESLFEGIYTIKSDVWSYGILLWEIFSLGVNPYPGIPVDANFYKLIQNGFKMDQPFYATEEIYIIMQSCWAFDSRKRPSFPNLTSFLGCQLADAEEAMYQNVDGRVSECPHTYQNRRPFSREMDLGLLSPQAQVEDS
The assay is described as follows: flow cytometry, purified mAb on SEM cells.

The target of a further assay is T2, hFLT3-His fusion protein (human, UniProt P36888 27-541, limits assumed).
T2 construct: Soluble recombinant antigen used for immunisation, ELISA, SPR and BLI binning; also called recombinant hFLT3 protein; not shown: His tag
T2 sequence (looked up): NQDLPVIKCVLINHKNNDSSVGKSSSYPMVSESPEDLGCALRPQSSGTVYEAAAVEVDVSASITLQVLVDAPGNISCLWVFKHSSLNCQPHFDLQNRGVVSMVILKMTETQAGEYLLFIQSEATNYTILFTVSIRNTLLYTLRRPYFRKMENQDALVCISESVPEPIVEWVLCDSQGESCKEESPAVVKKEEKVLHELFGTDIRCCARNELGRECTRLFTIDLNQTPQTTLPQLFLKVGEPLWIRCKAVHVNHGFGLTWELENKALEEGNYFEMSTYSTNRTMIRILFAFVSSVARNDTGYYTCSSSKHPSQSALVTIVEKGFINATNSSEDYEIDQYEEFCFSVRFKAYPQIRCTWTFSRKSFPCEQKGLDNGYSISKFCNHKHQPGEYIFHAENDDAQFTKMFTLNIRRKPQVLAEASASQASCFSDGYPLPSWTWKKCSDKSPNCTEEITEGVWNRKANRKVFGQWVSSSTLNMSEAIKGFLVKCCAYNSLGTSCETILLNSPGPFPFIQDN
The assay is described as follows: SPR, purified murine subclone mAb, hFLT3-His.

Assay [2] addresses T3, cynomolgus monkey FLT3 (cFLT3) expressed on RMA cells (cynomolgus monkey, UniProt A0A2K5VQ48 27-993).
T3 construct: whole, on cells; also called RMA-cFLT3; cynomolgus FLT3
T3 sequence: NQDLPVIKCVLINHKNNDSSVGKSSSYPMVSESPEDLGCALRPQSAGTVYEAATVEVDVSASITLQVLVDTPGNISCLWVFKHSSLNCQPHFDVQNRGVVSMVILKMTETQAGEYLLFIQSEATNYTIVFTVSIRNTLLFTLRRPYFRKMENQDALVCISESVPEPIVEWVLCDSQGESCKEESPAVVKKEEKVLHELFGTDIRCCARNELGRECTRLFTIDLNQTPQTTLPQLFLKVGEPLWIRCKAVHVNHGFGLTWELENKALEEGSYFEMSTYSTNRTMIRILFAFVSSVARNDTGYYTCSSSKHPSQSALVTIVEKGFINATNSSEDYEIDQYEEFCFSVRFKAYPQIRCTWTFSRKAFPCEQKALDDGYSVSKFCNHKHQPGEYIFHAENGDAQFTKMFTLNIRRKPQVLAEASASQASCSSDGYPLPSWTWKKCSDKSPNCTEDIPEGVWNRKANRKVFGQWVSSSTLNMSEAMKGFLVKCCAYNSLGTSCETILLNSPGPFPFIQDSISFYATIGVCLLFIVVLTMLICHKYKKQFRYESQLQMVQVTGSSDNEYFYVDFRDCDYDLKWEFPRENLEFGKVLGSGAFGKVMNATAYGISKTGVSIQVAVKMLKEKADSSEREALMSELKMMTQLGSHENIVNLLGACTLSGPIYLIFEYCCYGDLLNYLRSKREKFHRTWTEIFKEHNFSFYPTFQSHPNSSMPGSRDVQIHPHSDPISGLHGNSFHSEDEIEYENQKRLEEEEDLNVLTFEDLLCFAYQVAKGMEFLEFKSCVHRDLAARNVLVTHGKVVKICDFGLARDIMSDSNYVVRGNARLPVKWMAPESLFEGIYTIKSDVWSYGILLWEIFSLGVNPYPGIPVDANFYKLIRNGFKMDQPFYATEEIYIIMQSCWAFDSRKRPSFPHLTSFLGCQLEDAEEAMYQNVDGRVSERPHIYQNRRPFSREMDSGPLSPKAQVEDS
The experiment in a line: flow cytometry, purified mAb on RMA-cFLT3 cells. For orientation: Flow cytometry measures light scatter and fluorescence of single cells or particles in a stream.

Assay [3] addresses T1, human FLT3 (hFLT3) expressed on cells. The assay is described as follows: flow cytometry, purified mAb on RMA-hFLT3 cells.

B1: 12H10.G7 (antibody, V domains shown)
VH: EVQLQESGPELVKPGASVKMSCKASGYTFTRYVMHWVKQRPGQGLEWIGFINPYNDDTKYNEKFKGKATLTSDKSSSTAYMELSSLTSEDSAVYHCARWRQLGSLDSWGQGTTLTVSS
VL: NIVLTQSPASLAVSLGQRATISCRASESVDTYGSSFVHWYQQKPGQPPKLLIYLASNLESGVPARFSGSGSRSDFTLTIDPVEADDAATYYCQQNNEEPWTFGGGTKLEIK
notes: Purified murine mAb from a hybridoma subclone
As to B1, in assay [1], the EC50 (commonly the midpoint of the concentration-response curve) was 3.2 nM and the “Max MFI” value stood at 2830 MFI. In addition, in the assay with hFLT3-His fusion protein, the affinity, expressed as Kd, was 5.4 nM; the koff (usually a measure of how fast the partners let go of each other) came to 0.00055 s⁻¹; the kon (usually a measure of how fast the partners come together) is 100000 M⁻¹ s⁻¹. In addition, in assay [2], it took 0.94 nM to reach a half-maximal effect (EC50) and the “Max MFI” value stood at 5260 MFI. Further, in assay [3], the midpoint of the response, the EC50, lay at 0.36 nM and the “Max MFI” value was 1140 MFI.

B2: 14A5.E8 (antibody, V domains shown)
VH: EVQLQESGAELVQPGASVRLSCKASGYTFTSYWINWVKQRPGQGLEWIGNIYPGSSIINYNENFKNRATLTVDTSSSTAYMQLSSLTSDDSAVYYCARRVVYLYFDYWGQGTTLTVSS
VL: QIVLTQSPAIMSASPGEKVTMTCSASSSVSYMHWYQQKSGTSPKRWIYDTSKLASGVPARFSGSGSGTSYSLTISSMEAEDAATYYCQQWTSKSPTFGGGTKLEIK
notes: as for B1
As to B2, in assay [1], the half-maximal effective concentration (EC50) is around 1.07 nM and the “Max MFI” value worked out at 1960 MFI. Also, in the assay with hFLT3-His fusion protein, the Kd (usually the constant that tells how readily two partners part at equilibrium) turned out to be 15.1 nM, the koff was 0.0019 s⁻¹ and the kon was 130000 M⁻¹ s⁻¹. Besides, in assay [2], the 50% effective concentration (EC50) is 1.25 nM and the “Max MFI” value was determined as 1780 MFI. In assay [3], the EC50 was around 2.07 nM and the “Max MFI” value is 415 MFI.

B3: 4A4.A3 (antibody, V domains shown)
VH: QVTLKESGPGILQPSQTLSLTCSFSGFSLTTYGMGVGWIRQPSGKGLEWLANIWFNDNKYYNSTLKSRLTISKDTSNNQVFLKISSVDTTDTATYYCAQITTVVGTFDYWGQGSPLTVSP
VL: RIVMTQSPTTMAASPGEKITITCSASSSISSIYLHWYQQKPGFSPKLLIFRTSDLASGVPPRFGGSGSGTSYSLTIGTMEAEDVATYYCQQGSSFPRTFGGGTKLEIK
notes: as for B1
In the case of B3, in assay [1], the EC50 was found to be 3.29 nM and the “Max MFI” value turned out to be 2350 MFI. In the assay with hFLT3-His fusion protein, this molecule yielded a dissociation constant Kd of 7.3 nM, a koff of 0.00082 s⁻¹ and a kon of 110000 M⁻¹ s⁻¹. For the same molecule, in assay [2], the half-maximal effective concentration (EC50) was 1.07 nM and the “Max MFI” value amounted to 5570 MFI. In assay [3], the EC50 is 0.72 nM and the “Max MFI” value came out at 1020 MFI.

B4: 1A2.A3 (antibody, V domains shown)
VH: EVQLQESGPELVKPGASVKISCKASGYSFTGYYIHWVKQSPEESLEWIGEIYPNTGITTYNQKFTAKATLTVDKSSNTAYMQLKSLTSEDSAVYYCTRWGDYYGRDYWGQGTSVTVSS
VL: DIVLTQSPASLAVSLGQRATISCRASETVDTHGNSFMHWYQQKPGQPPKLLIYRASNLESGIPARFSGSGSRTDFTLTINPVEADDVATYYCQQSNEDPRTFGGGTKLEIK
notes: as for B1
Turning to B4, in assay [1], the EC50 was 5.47 nM and the “Max MFI” value stood at 1360 MFI. In addition, in the assay with hFLT3-His fusion protein, the Kd is 8.5 nM, the koff was 0.00089 s⁻¹ and the on-rate constant (kon) is 110000 M⁻¹ s⁻¹. Besides, in assay [2], the EC50 turned out to be 1.82 nM and the “Max MFI” value amounted to 2830 MFI. Further, in assay [3], the response was half-maximal at 0.8 nM (EC50) and the “Max MFI” value was found to be 499 MFI.

B5: 11F4.B9 (antibody, V domains shown)
VH: EVQLQESGPELVKPGASVKISCKASGYSFTGYYIHWVKQGPEKSLEWIGEIIPSTGSTIYNQKFKAKATLTVDKSSSTAYLQLKSLTSEDSAVYYCERWGDYYGRDYWGQGTSVTVSS
VL: DIVLTQSPASLAVSLGQRATISCRASESVDIYGNSFMHWYQQKPGQPPKLLIYRASNLESGIPARFSGSGSRTDFTLTINPVEADDVATYYCQQSNEDPRTFGGGTKLEIK
notes: as for B1
For the molecule B5, in assay [1], a half-maximal response (EC50) required 2.43 nM and the “Max MFI” value is 1140 MFI. In the assay with hFLT3-His fusion protein, binding was put at a Kd of 1.7 nM, the koff was 0.00025 s⁻¹ and the kon amounted to 150000 M⁻¹ s⁻¹. In assay [2], the EC50 came out at 1.23 nM and the “Max MFI” value was determined as 2590 MFI. In assay [3], the EC50 was found to be 0.53 nM and the “Max MFI” value was determined as 493 MFI.

B6: 12C9.E5 (antibody, V domains shown)
VH: EVQLQESGAELVRPGASVKLSCKASGYIFTDYEIHWVKQTPVHGLEWIGAIDPETGITAYSQKFKGKATLTTDTSSSTAYMEFRSLTSEDSAVYYCTRGGLLYWGQGTSVTVSS
VL: DVVMTQTPLSLSVTIGQPASISCKSSQSLLYSDGETYLNWLQQRPGQSPKRLMYQVSKLDPGIPDRFSGSGSETDFTLKISRVEAEDLGIYYCLQGTFYPHTFGGGTKLEIK
notes: as for B1
As to B6, in the assay with hFLT3-His fusion protein, binding was characterised by a dissociation constant (Kd) of 18.7 nM, the koff was determined as 0.00063 s⁻¹ and the kon turned out to be 34000 M⁻¹ s⁻¹. Besides, the binding result in assay [2] is “no binding”.

B7: 4H2.E3 (antibody, V domains shown)
VH: EVQLQESGPELVKPGASVKMSCKASGYTFTSYLMHWMKQKPGQGLEWIGYINPYSDGIKYNEKFRDKATLTSDKSSNTAYMELSSLTSEDSAVYYCAHSSGYVGYAMDYWGQGTSVTVSS
VL: GIVMTQTTPSVPVTPGESVSISCRSSKSLLHSNGNTYLYWFLQRPGQSPQLLIYRMSNLASGVPDRFSGSGSGTTFTLRISRVEAEDVGVYYCMQHLEYPFTFGSGTKLEIK
notes: as for B1
Consider B7, for which, in assay [1], it took 7.57 nM to reach a half-maximal effect (EC50) and the “Max MFI” value came out at 1510 MFI. For the same molecule, in the assay with hFLT3-His fusion protein, binding was characterised by a dissociation constant (Kd) of 17.6 nM, the dissociation rate constant (koff) stood at 0.001 s⁻¹ and the kon was 57000 M⁻¹ s⁻¹. Besides, in assay [2], it took 1.56 nM to reach a half-maximal effect (EC50) and the “Max MFI” value was determined as 3450 MFI. In assay [3], the EC50 came to 0.66 nM and the “Max MFI” value turned out to be 696 MFI.
